The values below are quoted from earlier work in article PMC10743670.

For data set [1], the target named is T1, Asp85 (UniProt position 98, WARYADWLFTT). The conditions noted are these: ground (unphotolysed) state of bacteriorhodopsin; purple-to-blue transition.
Data set [2] concerns the target T1, Asp85. The experiment in a line: other (described only as 'a titration of bacteriorhodopsin'). The following applies: bacteriorhodopsin with the proton release group deprotonated.
In data set [3] the target is Asp85 (UniProt position 98, WAQYADWLFTT). The conditions noted are these: ground state of the R82Q mutant.
For data set [4], the target named is Asp85 (UniProt position 85, EIRYIDWLVTT). The conditions noted are these: ground state.
The target in another data set is Asp97 (UniProt position 97, VFRYIDWLLTV). The following applies: ground state.

Like-named read-outs stand apart in the source and are kept apart here. Bounds are passed on as bounds.

Usually pKa stands for the pH at which an ionisable group is half protonated. For “Bacteriorhodopsin (bR) (Halobacterium salinarum (printed as Halobacterium halobium))”, the pKa result is “≈2.7” with Asp85 [1] and “≈7.5” with Asp85 [2].

With “Bacteriorhodopsin R82Q mutant (Halobacterium salinarum (printed as Halobacterium halobium); R82Q)”, the pKa result in the data set with Asp85 [3] is “≈7.5”.

Turning to “Exiguobacterium sibiricum rhodopsin (ESR) (Exiguobacterium sibiricum)”, the pKa in the data set with Asp85 [4] is <2.

In the case of “Exiguobacterium sibiricum rhodopsin (ESR) H57M mutant (Exiguobacterium sibiricum; H57M)”, in the data set with Asp85 [4], the pKa is 6.3.

Regarding “Proteorhodopsin (PR) (uncultured marine gamma-proteobacterium (printed as 'marine γ-proteobacteria'))”, in the data set with Asp97, the pKa result was “∼7.0”.
